Test results from the Human Domainome abundance scans (Beltran et al. 2025).
± gives the uncertainty stated by the source.

B1: Triacylglycerol hydrolase DDHD2, residues 389 to 447; numbered along this chain, O94830 (parent)
chain: TLEEDLKKLQLSEFFDIFEKEKVDKEALALCTDRDLQEIGIPLGPRKKILNYFSTRKNS

Variants of: B1
Assay: abundance fitness (aPCA) (normalised: wild type 0, dead -1); higher = more abundant; growth selection in yeast, the domain comes from the species named
Conditions: Homo sapiens

Variant | abundance fitness
TLEEDLKKLQLSEFFDIFEKEKVDKEALALCTDRDLQEIGIPLGPRKKILYYFSTRKNS [N51Y] | -0.475 ± 0.14
TLEEDLKKLQLSEFFDIFEKEKVDKEALALCTDRDLQEIGIPLGPRKKILDYFSTRKNS [N51D] | 0.209 ± 0.089
TLEEDLKKLQLSEVFDIFEKEKVDKEALALCTDRDLQEIGIPLGPRKKILNYFSTRKNS [F14V] | -0.505 ± 0.082
TLEEDLKKLQLSEQFDIFEKEKVDKEALALCTDRDLQEIGIPLGPRKKILNYFSTRKNS [F14Q] | -0.205 ± 0.084
TLEEDLKKLQLSEIFDIFEKEKVDKEALALCTDRDLQEIGIPLGPRKKILNYFSTRKNS [F14I] | -0.365 ± 0.24
TLEEDLKKLQLSEFFDIFEKEKVDKKALALCTDRDLQEIGIPLGPRKKILNYFSTRKNS [E26K] | 0.481 ± 0.088
TLEEDLKKLQLSEFFDIFEKEKVDKVALALCTDRDLQEIGIPLGPRKKILNYFSTRKNS [E26V] | -0.21 ± 0.08
TLEEDLKKLQLSEFFDIFEKEKVDKNALALCTDRDLQEIGIPLGPRKKILNYFSTRKNS [E26N] | -0.109 ± 0.15
TLEEDLKKLQLEEFFDIFEKEKVDKEALALCTDRDLQEIGIPLGPRKKILNYFSTRKNS [S12E] | 0.016 ± 0.066
TLEEDLKKLQLSEFFDIFEKEKVDKEALALCTDRDLQEIGIPLGERKKILNYFSTRKNS [P45E] | 0.244 ± 0.11
TLEEDLKKLQLSEFFDIFEKEKVDKEALASCTDRDLQEIGIPLGPRKKILNYFSTRKNS [L30S] | 0.489 ± 0.058
TLEEDLKKLQLSEFFDIFEKEKVDKEALARCTDRDLQEIGIPLGPRKKILNYFSTRKNS [L30R] | 0.581 ± 0.061
TLEEDLKKLQLSEFFDIFEKEKVDKEALALCTDRDLQEIGIPLGPRRKILNYFSTRKNS [K47R] | -0.065 ± 0.064
TLEEDLKKLQLSEFFPIFEKEKVDKEALALCTDRDLQEIGIPLGPRKKILNYFSTRKNS [D16P] | -0.145 ± 0.066
TLEEDLKKLQLSEFFDIFEKEKVDKEALALCTDRDLQELGIPLGPRKKILNYFSTRKNS [I39L] | 0.176 ± 0.064
TLEPDLKKLQLSEFFDIFEKEKVDKEALALCTDRDLQEIGIPLGPRKKILNYFSTRKNS [E4P] | -0.996 ± 0.11
TLEEDLKKLQLSEFFDIFEKEKVSKEALALCTDRDLQEIGIPLGPRKKILNYFSTRKNS [D24S] | 0.466 ± 0.082
TLEEDLKKLQLSEFFDIFEKEKVDKEALALCTDRDLQEIGIKLGPRKKILNYFSTRKNS [P42K] | -0.737 ± 0.1
TLEEDLKKLQLSEFFDIFEKEKVDKEALALCTDRDLQEIGISLGPRKKILNYFSTRKNS [P42S] | -0.493 ± 0.081
TLEEDLKKLQLSEFFDIFEKEKVDKEALCLCTDRDLQEIGIPLGPRKKILNYFSTRKNS [A29C] | -0.23 ± 0.086
TLEEDLKKLQLSEFFDIFEKEKVDKEALELCTDRDLQEIGIPLGPRKKILNYFSTRKNS [A29E] | 0.005 ± 0.11
TLEEDLKKLQLSEFFDIFEKEKVDKEALLLCTDRDLQEIGIPLGPRKKILNYFSTRKNS [A29L] | -0.323 ± 0.071
TLEEDLKKLQLSEFFDIFEKEKEDKEALALCTDRDLQEIGIPLGPRKKILNYFSTRKNS [V23E] | -0.434 ± 0.091

Variant | abundance fitness
TLEEDLKKLQLSEFFDIFEKEKADKEALALCTDRDLQEIGIPLGPRKKILNYFSTRKNS [V23A] | -0.339 ± 0.083
TLEEDLKKLQLSEFFDIFEKEKRDKEALALCTDRDLQEIGIPLGPRKKILNYFSTRKNS [V23R] | -0.311 ± 0.072
TLEEDLKKLQLSEFFDIFEKEKVDKEALALCTDRDLQEIGIPLGPRKKKLNYFSTRKNS [I49K] | -0.467 ± 0.13
TLEEDLKKLQLSEFFDIFEKEKVDKEALALCTDRDLQEIGIPLGPRKKMLNYFSTRKNS [I49M] | -0.09 ± 0.096
TLEEDLKKLQLSEFFDIFEKEKVDKEALALCTDRDLQEIGIPLGPRKKSLNYFSTRKNS [I49S] | -0.046 ± 0.079
TLEEDLKKLQLSEFFDIFEKEKVDKEALALCTDRDLQEIGIPLGPRKKILNCFSTRKNS [Y52C] | -0.459 ± 0.13
TLEEDLKKLQLSEFFDIFEKEKVDKEALALCTDRDLQEIGIPLGPRKKILNDFSTRKNS [Y52D] | -0.088 ± 0.1
TLEEDLKKLQLSEFFDIFEKEKVDKEALALCTDRDLQEIGIPLGPRKKILNGFSTRKNS [Y52G] | -0.34 ± 0.067
TLEEDLKKLQLSEFFDIFEKVKVDKEALALCTDRDLQEIGIPLGPRKKILNYFSTRKNS [E21V] | 0.029 ± 0.075
TLEEDLKKLQLSEFFDIFEKEKVDKEALALCTDRDLWEIGIPLGPRKKILNYFSTRKNS [Q37W] | -0.37 ± 0.098
TLEEDLFKLQLSEFFDIFEKEKVDKEALALCTDRDLQEIGIPLGPRKKILNYFSTRKNS [K7F] | -0.038 ± 0.14
TLEEDLKKLQLSEFFDIFEKEKVDKEALALCTDRDLQEIGIPLGPRKKILNYMSTRKNS [F53M] | 0.023 ± 0.091
TLEEDLKKLQLSEFFDIFEKEKVDKEALALCTDRDLQEIGIPLGPRKKILNYDSTRKNS [F53D] | -0.03 ± 0.095
TLEEDLKKLQLSEFFDIFEKEKVDKEALALCTDRDLQEIGIPLGPRKKILNYRSTRKNS [F53R] | -0.323 ± 0.069
TLEEDLKKLQLSEFQDIFEKEKVDKEALALCTDRDLQEIGIPLGPRKKILNYFSTRKNS [F15Q] | -0.103 ± 0.086
TLEEDLKKLQLSEFADIFEKEKVDKEALALCTDRDLQEIGIPLGPRKKILNYFSTRKNS [F15A] | -0.005 ± 0.062
TLEEDLKKLQLSEFTDIFEKEKVDKEALALCTDRDLQEIGIPLGPRKKILNYFSTRKNS [F15T] | 0.112 ± 0.07
TLEEDLKKLQLSEFFDIFEKEKVDKEALALCTDPDLQEIGIPLGPRKKILNYFSTRKNS [R34P] | -0.266 ± 0.1
TLEEDLKKLQLSEFFDIFEKEKVDKEALALCTDIDLQEIGIPLGPRKKILNYFSTRKNS [R34I] | -0.135 ± 0.13
TLEEDLKKLQLSEFFDIFEKEKVDKEALALCTDRDLQEIGIPTGPRKKILNYFSTRKNS [L43T] | 0.543 ± 0.054
TLEEDLKKLQLSEFFDIFEKEKVDKEALALCTDRDLQEIGIPFGPRKKILNYFSTRKNS [L43F] | 0.313 ± 0.053
TLEEDLKKLQLSEFFDIFEKEKVDKEALALCTDRDLQEIGIPHGPRKKILNYFSTRKNS [L43H] | 0.519 ± 0.058
